According to patent publication US20200246472A1:
Square brackets hold non-standard residues; d marks the D form. Ends that are not written are not given here. Dmt = Cc1cc(O)cc(C)c1C[C@H](N)C(=O)O

B1: CM-56 (peptide)
peptide: [Dmt]PFFQFQFK-NH2
modifications: N-terminus assumed
SMILES: Cc1cc(O)cc(C)c1C[C@H](N)C(=O)N1CCC[C@H]1C(=O)N[C@@H](Cc1ccccc1)C(=O)N[C@@H](Cc1ccccc1)C(=O)N[C@@H](CCC(N)=O)C(=O)N[C@@H](Cc1ccccc1)C(=O)N[C@@H](CCC(N)=O)C(=O)N[C@@H](Cc1ccccc1)C(=O)N[C@@H](CCCCN)C(N)=O
B2: CM-58 (peptide)
peptide: [Dmt]PWFQFQFK-NH2
modifications: N-terminus assumed
SMILES: Cc1cc(O)cc(C)c1C[C@H](N)C(=O)N1CCC[C@H]1C(=O)N[C@@H](Cc1c[nH]c2ccccc12)C(=O)N[C@@H](Cc1ccccc1)C(=O)N[C@@H](CCC(N)=O)C(=O)N[C@@H](Cc1ccccc1)C(=O)N[C@@H](CCC(N)=O)C(=O)N[C@@H](Cc1ccccc1)C(=O)N[C@@H](CCCCN)C(N)=O

Key:
Assay in all cases: binding test (Ki), method not described
KOR = molecular target: KOR
DOR = molecular target: DOR
MOR = molecular target: MOR
Chain of MOR (P35372 whole entry): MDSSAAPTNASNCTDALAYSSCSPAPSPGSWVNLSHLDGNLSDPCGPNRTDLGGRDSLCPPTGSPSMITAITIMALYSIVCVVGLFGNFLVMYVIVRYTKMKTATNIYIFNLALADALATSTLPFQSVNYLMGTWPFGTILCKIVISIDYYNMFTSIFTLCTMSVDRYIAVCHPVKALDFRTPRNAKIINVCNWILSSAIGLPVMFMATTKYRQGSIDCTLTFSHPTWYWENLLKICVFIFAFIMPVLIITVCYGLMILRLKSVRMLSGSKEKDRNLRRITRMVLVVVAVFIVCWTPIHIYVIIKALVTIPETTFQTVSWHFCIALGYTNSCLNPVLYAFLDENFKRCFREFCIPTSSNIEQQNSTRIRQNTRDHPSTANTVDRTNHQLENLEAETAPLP

Row | Binder | Ki (KOR) | Ki (DOR) | Ki (MOR)
1 | B1 | 337 nM | 176 nM | 65 nM
2 | B2 | 120 nM | 15 nM | 7.5 nM
